# Data as given in patent publication US20220204580A1 (AstraZeneca / MedImmune, published 2022).
# Numbered stars: 1 amine (or outer) side, 2 acyl side, 3 side chain; on linkers, the order of the positions; unused ones are H or OH. Bridge positions count the residues as written; N and C are the ends. Square brackets hold non-standard residues; d marks the D form. Side chains are listed from the residue outwards. Ends that are not written are not given here. * marks the point of attachment. C18 diacid = O=C(O)CCCCCCCCCCCCCCCCC(=O)*; γGlu = O=C(O)[C@H](CCC(=O)[*:2])N[*:1]; Aib = CC(C)(N)C(=O)O
# B1: Peptide 69 (SEQ ID NO: 69) (peptide)
# peptide: K([γGlu-C18 diacid])KCNTATCATQRLANFLVHSS[Aib]NFGPILPPTRVGSNTY-NH2
# modifications: disulfide 3-8; N-terminus assumed
# SMILES: CC[C@H](C)[C@H](NC(=O)[C@@H]1CCCN1C(=O)CNC(=O)[C@H](Cc1ccccc1)NC(=O)[C@H](CC(N)=O)NC(=O)C(C)(C)NC(=O)[C@H](CO)NC(=O)[C@H](CO)NC(=O)[C@H](Cc1c[nH]cn1)NC(=O)[C@@H](NC(=O)[C@H](CC(C)C)NC(=O)[C@H](Cc1ccccc1)NC(=O)[C@H](CC(N)=O)NC(=O)[C@H](C)NC(=O)[C@H](CC(C)C)NC(=O)[C@H](CCCNC(=N)N)NC(=O)[C@H](CCC(N)=O)NC(=O)[C@@H](NC(=O)[C@H](C)NC(=O)[C@@H]1CSSC[C@H](NC(=O)[C@H](CCCCN)NC(=O)[C@@H](N)CCCCNC(=O)CC[C@H](NC(=O)CCCCCCCCCCCCCCCCC(=O)O)C(=O)O)C(=O)N[C@@H](CC(N)=O)C(=O)N[C@@H]([C@@H](C)O)C(=O)N[C@@H](C)C(=O)N[C@@H]([C@@H](C)O)C(=O)N1)[C@@H](C)O)C(C)C)C(=O)N[C@@H](CC(C)C)C(=O)N1CCC[C@H]1C(=O)N1CCC[C@H]1C(=O)N[C@H](C(=O)N[C@@H](CCCNC(=N)N)C(=O)N[C@H](C(=O)NCC(=O)N[C@@H](CO)C(=O)N[C@@H](CC(N)=O)C(=O)N[C@H](C(=O)N[C@@H](Cc1ccc(O)cc1)C(N)=O)[C@@H](C)O)C(C)C)[C@@H](C)O
# B2: Peptide 70 (SEQ ID NO: 70) (peptide)
# peptide: K([γGlu-γGlu-C18 diacid])KCNTATCATQRLANFLVHSS[Aib]NFGPILPPTRVGSNTY-NH2
# modifications: disulfide 3-8; N-terminus assumed
# SMILES: CC[C@H](C)[C@H](NC(=O)[C@@H]1CCCN1C(=O)CNC(=O)[C@H](Cc1ccccc1)NC(=O)[C@H](CC(N)=O)NC(=O)C(C)(C)NC(=O)[C@H](CO)NC(=O)[C@H](CO)NC(=O)[C@H](Cc1c[nH]cn1)NC(=O)[C@@H](NC(=O)[C@H](CC(C)C)NC(=O)[C@H](Cc1ccccc1)NC(=O)[C@H](CC(N)=O)NC(=O)[C@H](C)NC(=O)[C@H](CC(C)C)NC(=O)[C@H](CCCNC(=N)N)NC(=O)[C@H](CCC(N)=O)NC(=O)[C@@H](NC(=O)[C@H](C)NC(=O)[C@@H]1CSSC[C@H](NC(=O)[C@H](CCCCN)NC(=O)[C@@H](N)CCCCNC(=O)CC[C@H](NC(=O)CC[C@H](NC(=O)CCCCCCCCCCCCCCCCC(=O)O)C(=O)O)C(=O)O)C(=O)N[C@@H](CC(N)=O)C(=O)N[C@@H]([C@@H](C)O)C(=O)N[C@@H](C)C(=O)N[C@@H]([C@@H](C)O)C(=O)N1)[C@@H](C)O)C(C)C)C(=O)N[C@@H](CC(C)C)C(=O)N1CCC[C@H]1C(=O)N1CCC[C@H]1C(=O)N[C@H](C(=O)N[C@@H](CCCNC(=N)N)C(=O)N[C@H](C(=O)NCC(=O)N[C@@H](CO)C(=O)N[C@@H](CC(N)=O)C(=O)N[C@H](C(=O)N[C@@H](Cc1ccc(O)cc1)C(N)=O)[C@@H](C)O)C(C)C)[C@@H](C)O
# B3: Peptide 73 (SEQ ID NO: 73) (peptide)
# peptide: K([γGlu-C18 diacid])KCNTATCATQRLANFLVHSS[Aib]NFGPILPPTNVGSRTY-NH2
# modifications: disulfide 3-8; N-terminus assumed
# SMILES: CC[C@H](C)[C@H](NC(=O)[C@@H]1CCCN1C(=O)CNC(=O)[C@H](Cc1ccccc1)NC(=O)[C@H](CC(N)=O)NC(=O)C(C)(C)NC(=O)[C@H](CO)NC(=O)[C@H](CO)NC(=O)[C@H](Cc1c[nH]cn1)NC(=O)[C@@H](NC(=O)[C@H](CC(C)C)NC(=O)[C@H](Cc1ccccc1)NC(=O)[C@H](CC(N)=O)NC(=O)[C@H](C)NC(=O)[C@H](CC(C)C)NC(=O)[C@H](CCCNC(=N)N)NC(=O)[C@H](CCC(N)=O)NC(=O)[C@@H](NC(=O)[C@H](C)NC(=O)[C@@H]1CSSC[C@H](NC(=O)[C@H](CCCCN)NC(=O)[C@@H](N)CCCCNC(=O)CC[C@H](NC(=O)CCCCCCCCCCCCCCCCC(=O)O)C(=O)O)C(=O)N[C@@H](CC(N)=O)C(=O)N[C@@H]([C@@H](C)O)C(=O)N[C@@H](C)C(=O)N[C@@H]([C@@H](C)O)C(=O)N1)[C@@H](C)O)C(C)C)C(=O)N[C@@H](CC(C)C)C(=O)N1CCC[C@H]1C(=O)N1CCC[C@H]1C(=O)N[C@H](C(=O)N[C@@H](CC(N)=O)C(=O)N[C@H](C(=O)NCC(=O)N[C@@H](CO)C(=O)N[C@@H](CCCNC(=N)N)C(=O)N[C@H](C(=O)N[C@@H](Cc1ccc(O)cc1)C(N)=O)[C@@H](C)O)C(C)C)[C@@H](C)O
# B4: Peptide 68 (SEQ ID NO: 68) (peptide)
# peptide: {C18 diacid-γGlu}-CNTATCATQRLANFLVHSS[Aib]NFGPILPPTRVGSNTY-NH2
# modifications: disulfide 1-6
# SMILES: CC[C@H](C)[C@H](NC(=O)[C@@H]1CCCN1C(=O)CNC(=O)[C@H](Cc1ccccc1)NC(=O)[C@H](CC(N)=O)NC(=O)C(C)(C)NC(=O)[C@H](CO)NC(=O)[C@H](CO)NC(=O)[C@H](Cc1c[nH]cn1)NC(=O)[C@@H](NC(=O)[C@H](CC(C)C)NC(=O)[C@H](Cc1ccccc1)NC(=O)[C@H](CC(N)=O)NC(=O)[C@H](C)NC(=O)[C@H](CC(C)C)NC(=O)[C@H](CCCNC(=N)N)NC(=O)[C@H](CCC(N)=O)NC(=O)[C@@H](NC(=O)[C@H](C)NC(=O)[C@@H]1CSSC[C@H](NC(=O)CC[C@H](NC(=O)CCCCCCCCCCCCCCCCC(=O)O)C(=O)O)C(=O)N[C@@H](CC(N)=O)C(=O)N[C@@H]([C@@H](C)O)C(=O)N[C@@H](C)C(=O)N[C@@H]([C@@H](C)O)C(=O)N1)[C@@H](C)O)C(C)C)C(=O)N[C@@H](CC(C)C)C(=O)N1CCC[C@H]1C(=O)N1CCC[C@H]1C(=O)N[C@H](C(=O)N[C@@H](CCCNC(=N)N)C(=O)N[C@H](C(=O)NCC(=O)N[C@@H](CO)C(=O)N[C@@H](CC(N)=O)C(=O)N[C@H](C(=O)N[C@@H](Cc1ccc(O)cc1)C(N)=O)[C@@H](C)O)C(C)C)[C@@H](C)O
# B5: Peptide 72 (SEQ ID NO: 72) (peptide)
# peptide: K([γGlu-γGlu-C18 diacid])CNTATCATQRLANFLVHSS[Aib]NFGPILPPTNVGSRTY-NH2
# modifications: disulfide 2-7; N-terminus assumed
# SMILES: CC[C@H](C)[C@H](NC(=O)[C@@H]1CCCN1C(=O)CNC(=O)[C@H](Cc1ccccc1)NC(=O)[C@H](CC(N)=O)NC(=O)C(C)(C)NC(=O)[C@H](CO)NC(=O)[C@H](CO)NC(=O)[C@H](Cc1c[nH]cn1)NC(=O)[C@@H](NC(=O)[C@H](CC(C)C)NC(=O)[C@H](Cc1ccccc1)NC(=O)[C@H](CC(N)=O)NC(=O)[C@H](C)NC(=O)[C@H](CC(C)C)NC(=O)[C@H](CCCNC(=N)N)NC(=O)[C@H](CCC(N)=O)NC(=O)[C@@H](NC(=O)[C@H](C)NC(=O)[C@@H]1CSSC[C@H](NC(=O)[C@@H](N)CCCCNC(=O)CC[C@H](NC(=O)CC[C@H](NC(=O)CCCCCCCCCCCCCCCCC(=O)O)C(=O)O)C(=O)O)C(=O)N[C@@H](CC(N)=O)C(=O)N[C@@H]([C@@H](C)O)C(=O)N[C@@H](C)C(=O)N[C@@H]([C@@H](C)O)C(=O)N1)[C@@H](C)O)C(C)C)C(=O)N[C@@H](CC(C)C)C(=O)N1CCC[C@H]1C(=O)N1CCC[C@H]1C(=O)N[C@H](C(=O)N[C@@H](CC(N)=O)C(=O)N[C@H](C(=O)NCC(=O)N[C@@H](CO)C(=O)N[C@@H](CCCNC(=N)N)C(=O)N[C@H](C(=O)N[C@@H](Cc1ccc(O)cc1)C(N)=O)[C@@H](C)O)C(C)C)[C@@H](C)O
# B6: Peptide 71 (SEQ ID NO: 71) (peptide)
# peptide: {C18 diacid}-[γGlu]KCNTATCATQRLANFLVHSS[Aib]NFGPILPPTRVGSNTY-NH2
# modifications: disulfide 3-8
# SMILES: CC[C@H](C)[C@H](NC(=O)[C@@H]1CCCN1C(=O)CNC(=O)[C@H](Cc1ccccc1)NC(=O)[C@H](CC(N)=O)NC(=O)C(C)(C)NC(=O)[C@H](CO)NC(=O)[C@H](CO)NC(=O)[C@H](Cc1c[nH]cn1)NC(=O)[C@@H](NC(=O)[C@H](CC(C)C)NC(=O)[C@H](Cc1ccccc1)NC(=O)[C@H](CC(N)=O)NC(=O)[C@H](C)NC(=O)[C@H](CC(C)C)NC(=O)[C@H](CCCNC(=N)N)NC(=O)[C@H](CCC(N)=O)NC(=O)[C@@H](NC(=O)[C@H](C)NC(=O)[C@@H]1CSSC[C@H](NC(=O)[C@H](CCCCN)NC(=O)CC[C@H](NC(=O)CCCCCCCCCCCCCCCCC(=O)O)C(=O)O)C(=O)N[C@@H](CC(N)=O)C(=O)N[C@@H]([C@@H](C)O)C(=O)N[C@@H](C)C(=O)N[C@@H]([C@@H](C)O)C(=O)N1)[C@@H](C)O)C(C)C)C(=O)N[C@@H](CC(C)C)C(=O)N1CCC[C@H]1C(=O)N1CCC[C@H]1C(=O)N[C@H](C(=O)N[C@@H](CCCNC(=N)N)C(=O)N[C@H](C(=O)NCC(=O)N[C@@H](CO)C(=O)N[C@@H](CC(N)=O)C(=O)N[C@H](C(=O)N[C@@H](Cc1ccc(O)cc1)C(N)=O)[C@@H](C)O)C(C)C)[C@@H](C)O
# Target: T1, human amylin receptor (calcitonin receptor co-expressed with receptor activity modifying protein, RAMP3) (human, UniProt P30988 25-474; O60896 24-148)
# T1 sequence (looked up) 1: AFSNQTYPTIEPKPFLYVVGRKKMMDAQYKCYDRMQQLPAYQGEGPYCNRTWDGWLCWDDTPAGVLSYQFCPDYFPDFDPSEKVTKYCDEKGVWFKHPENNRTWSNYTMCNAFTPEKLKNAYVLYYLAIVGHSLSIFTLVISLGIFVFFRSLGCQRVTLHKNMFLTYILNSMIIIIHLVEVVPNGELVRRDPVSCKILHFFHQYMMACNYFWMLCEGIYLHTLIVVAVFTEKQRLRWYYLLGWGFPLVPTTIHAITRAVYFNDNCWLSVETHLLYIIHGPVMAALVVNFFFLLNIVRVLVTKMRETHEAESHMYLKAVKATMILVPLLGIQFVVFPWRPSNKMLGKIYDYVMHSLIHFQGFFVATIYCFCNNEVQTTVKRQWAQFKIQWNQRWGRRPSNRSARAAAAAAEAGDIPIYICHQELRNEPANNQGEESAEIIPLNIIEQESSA
# T1 sequence (looked up) 2: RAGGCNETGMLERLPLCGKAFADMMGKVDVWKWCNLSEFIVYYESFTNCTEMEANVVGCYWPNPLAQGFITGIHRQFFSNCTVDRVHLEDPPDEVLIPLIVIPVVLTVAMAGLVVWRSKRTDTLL
# Assay: cell-based or functional assay
Binder,EC50 (cAMP production),Ratio (EC50 hCTR / EC50 hAMYR3)
B1,0.164 nM,10
B2,0.235 nM,23
B3,0.256 nM,7
B4,0.192 nM,9
B5,0.227 nM,18
B6,0.211 nM,7

# Target: T2, human calcitonin receptor (human, UniProt P30988 25-474)
# T2 sequence (looked up): T1 sequence (looked up) 1
# Assay: cell-based or functional assay
row,Binder,EC50 (cAMP production)
1,B1,1.57 nM
2,B2,5.41 nM
3,B3,1.82 nM
4,B4,1.77 nM
5,B5,4 nM
6,B6,1.39 nM
